56 substances from US10047131B2, “Peptides and combination of peptides for use in immunotherapy against ovarian cancer and other cancers” (immatics biotechnologies GmbH, priority 2015, dated 2018) can be followed below.

The assay concerns the target HLA-A*02:01 (Homo sapiens, UniProt P04439, D140Y/D185E/D98H/E176V/E277Q/G131W/G231S/I119V/I121R/I166T/I218V/L300P/L318F/N151K/N90K/P208A/P217A/Q86G/Q94H/R138H/R169H/T345S). As to the kind of experiment: MHC binding assay (UV-ligand exchange, ELISA of exchange yield). The note with it: binding to HLA-A*02:01, UV-ligand exchange. From the text: Candidate peptides for T cell based therapies according to the present invention were further tested for their MHC binding capacity (affinity). The individual peptide-MHC complexes were produced by UV-ligand exchange, where a UV-sensitive peptide is cleaved upon UV-irradiation, and exchanged with the peptide of interest as analyzed. Only peptide candidates that can effectively bind and stabilize the peptide-receptive MHC molecules prevent dissociation of the MHC complexes. To determine the yield of the exchange reaction, an ELISA was performed based on the detection of the light chain (p2m) of stabilized MHC complexes. The assay was performed as generally described in Rodenko et al. (Rodenko et al., 2006).
96 well MAXISorp plates (NUNC) were coated over night with 2 μg/ml streptavidin in PBS at room temperature, washed 4× and blocked for 1 h at 37° C. in 2% BSA containing blocking buffer. […] Peptide-MHC monomers of the UV-exchange reaction were diluted 100 fold in blocking buffer. Samples were incubated for 1h at 37° C., washed four times, incubated with 2 μg/ml HRP conjugated anti-β2m for 1h at 37° C., washed again and detected with TMB solution that is stopped with […]. Absorption was measured at 450 nm. Candidate peptides that show a high exchange yield (preferably higher than 50%, most preferred higher than 75%) are generally preferred for a generation and production of antibodies or fragments thereof, and/or T cell receptors or fragments thereof, as they show sufficient avidity to the MHC molecules and prevent dissociation of the MHC complexes.
A general note: An ELISA detects its analyte on a solid surface through an enzyme-linked reagent.
For the substance “120 (ALLGIPLTLV; listed as Homo sapiens) [compound 120]”, the “Peptide exchange (MHC class I binding score, peptide exchange yield)” value (“Peptide exchange” below) was ““+++” (≥50 = +++)”.
The value for “121 (GVVDPRAISVL; listed as Homo sapiens) [compound 121]” was ““++” (≥20% = ++)”; that for “122 (FLLAEDDIYL; listed as Homo sapiens) [compound 122]” was ““+++” (≥50 = +++)”; that for “123 (NLWDLTDASVV; listed as Homo sapiens) [compound 123]” was ““+++” (≥50 = +++)”.
Consider “124 (ALYETELADA; listed as Homo sapiens) [compound 124]”, for which the “Peptide exchange” value is ““++” (≥20% = ++)”.
Consider “125 (VQIHQVAQV; listed as Homo sapiens) [compound 125]”, for which the “Peptide exchange” value is on record as ““+++” (≥50 = +++)”.
Turning to “126 (VLAYFLPEA; listed as Homo sapiens) [compound 126]”, the “Peptide exchange” value is on record as ““++++” (≥75% = ++++)”.
Consider “127 (KIGDEPPKV; listed as Homo sapiens) [compound 127]”, for which the “Peptide exchange” value is ““++” (≥20% = ++)”.
Consider “128 (YLFDDPLSAV; listed as Homo sapiens) [compound 128]”, for which the “Peptide exchange” value is given as ““++” (≥20% = ++)”.
To “129 (GLLDGGVDILL; listed as Homo sapiens) [compound 129]” belongs ““+++” (≥50 = +++)”; to “130 (FLWNGEDSALL; listed as Homo sapiens) [compound 130]”, ““+++” (≥50 = +++)”.
Regarding “131 (FVPPVTVFPSL; listed as Homo sapiens) [compound 131]”, the “Peptide exchange” value is ““++” (≥20% = ++)”.
To “132 (LLVEQPPLAGV; listed as Homo sapiens) [compound 132]” belongs ““+++” (≥50 = +++)”.
“133 (KVLSNIHTV; listed as Homo sapiens) [compound 133]”: the “Peptide exchange” value is ““++” (≥20% = ++)”.
Regarding “134 (YLQELIFSV; listed as Homo sapiens) [compound 134]”, the “Peptide exchange” value is reported as ““+++” (≥50 = +++)”.
Regarding “135 (ALSEVDFQL; listed as Homo sapiens) [compound 135]”, the “Peptide exchange” value is on record as ““+++” (≥50 = +++)”.
With “136 (YLADPSNLFVV; listed as Homo sapiens) [compound 136]”, the “Peptide exchange” value is given as ““+++” (≥50 = +++)”.
The value for “137 (TLVLTLPTV; listed as Homo sapiens) [compound 137]” was ““++++” (≥75% = ++++)”; that for “138 (YQYPRAILSV; listed as Homo sapiens) [compound 138]” was ““+++” (≥50 = +++)”.
The value for “139 (SVMEVNSGIYRV; listed as Homo sapiens) [compound 139]” was ““+++” (≥50 = +++)”; that for “140 (YMDAPKAAL; listed as Homo sapiens) [compound 140]” was ““++” (≥20% = ++)”.
Consider “141 (YLDFSNNRL; listed as Homo sapiens) [compound 141]”, for which the “Peptide exchange” value is ““++” (≥20% = ++)”.
As for “142 (FLFATPVFI; listed as Homo sapiens) [compound 142]”, the “Peptide exchange” value is ““+++” (≥50 = +++)”.
Turning to “143 (LLLDITPEI; listed as Homo sapiens) [compound 143]”, the “Peptide exchange” value is ““++++” (≥75% = ++++)”.
On to “144 (YIMEPSIFNTL; listed as Homo sapiens) [compound 144]”, for which the “Peptide exchange” value was ““+++” (≥50 = +++)”.
Consider “145 (FLATSGTLAGI; listed as Homo sapiens) [compound 145]”, for which the “Peptide exchange” value is on record as ““++” (≥20% = ++)”.
On to “146 (SLATAGDGLIEL; listed as Homo sapiens) [compound 146]”, for which the “Peptide exchange” value is reported as ““++” (≥20% = ++)”.
For the substance “147 (SLLEAVSFL; listed as Homo sapiens) [compound 147]”, the “Peptide exchange” value is given as ““+++” (≥50 = +++)”.
On to “148 (ALNPEIVSV; listed as Homo sapiens) [compound 148]”, for which the “Peptide exchange” value is recorded as ““++” (≥20% = ++)”.
Turning to “149 (NLLELFVQL; listed as Homo sapiens) [compound 149]”, the “Peptide exchange” value is ““+++” (≥50 = +++)”.
With “150 (RLWEEGEELEL; listed as Homo sapiens) [compound 150]”, the “Peptide exchange” value is on record as ““+++” (≥50 = +++)”.
For “151 (KILQQLVTL; listed as Homo sapiens) [compound 151]”, the “Peptide exchange” value is given as ““+++” (≥50 = +++)”.
The value for “152 (ILFEDIFDV; listed as Homo sapiens) [compound 152]” was ““+++” (≥50 = +++)”.
To “153 (FLIANVLYL; listed as Homo sapiens) [compound 153]” belongs ““+” (≥10% = +)”.
For the substance “154 (ALDDGTPAL; listed as Homo sapiens) [compound 154]”, the “Peptide exchange” value is listed as ““++” (≥20% = ++)”.
“155 (RVANLHFPSV; listed as Homo sapiens) [compound 155]”: the “Peptide exchange” value is given as ““+++” (≥50 = +++)”.
With “157 (SLNDEVPEV; listed as Homo sapiens) [compound 157]”, the “Peptide exchange” value is ““++” (≥20% = ++)”.
“158 (KLFDVDEDGYI; listed as Homo sapiens) [compound 158]”: the “Peptide exchange” value is listed as ““+++” (≥50 = +++)”.
As to “159 (GLVGNPLPSV; listed as Homo sapiens) [compound 159]”, the “Peptide exchange” value is listed as ““++++” (≥75% = ++++)”.
As to “160 (FLFDEEIEQI; listed as Homo sapiens) [compound 160]”, the “Peptide exchange” value is listed as ““+++” (≥50 = +++)”.
On to “161 (ALLEGVNTV; listed as Homo sapiens) [compound 161]”, for which the “Peptide exchange” value is listed as ““+++” (≥50 = +++)”.
For “162 (YQQAQVPSV; listed as Homo sapiens) [compound 162]”, the “Peptide exchange” value was ““+++” (≥50 = +++)”.
“163 (ALDEMGDLLQL; listed as Homo sapiens) [compound 163]”: the “Peptide exchange” value was ““+++” (≥50 = +++)”.
As to “164 (ALLPQPKNLTV; listed as Homo sapiens) [compound 164]”, the “Peptide exchange” value is reported as ““+++” (≥50 = +++)”.
To “165 (SLLDEIRAV; listed as Homo sapiens) [compound 165]” belongs ““+++” (≥50 = +++)”; to “166 (YLNHLEPPV; listed as Homo sapiens) [compound 166]”, ““+++” (≥50 = +++)”; to “167 (KVLEVTEEFGV; listed as Homo sapiens) [compound 167]”, ““+++” (≥50 = +++)”.
For “168 (KILDADIQL; listed as Homo sapiens) [compound 168]”, the “Peptide exchange” value is recorded as ““++++” (≥75% = ++++)”.
To “169 (NLPEYLPFV; listed as Homo sapiens) [compound 169]” belongs ““+++” (≥50 = +++)”; to “170 (RLQETLSAA; listed as Homo sapiens) [compound 170]”, ““+++” (≥50 = +++)”; to “171 (LLLPLQILL; listed as Homo sapiens) [compound 171]”, ““+++” (≥50 = +++)”.
As to “172 (VLYSYTIITV; listed as Homo sapiens) [compound 172]”, the “Peptide exchange” value is given as ““++” (≥20% = ++)”.
Consider “173 (LLDSASAGLYL; listed as Homo sapiens) [compound 173]”, for which the “Peptide exchange” value is listed as ““+++” (≥50 = +++)”.
Take “174 (ALAQYLITA; listed as Homo sapiens) [compound 174]”: the “Peptide exchange” value was ““+++” (≥50 = +++)”.
The value for “175 (YLFENISQL; listed as Homo sapiens) [compound 175]” was ““+++” (≥50 = +++)”; that for “176 (YLMEGSYNKVFL; listed as Homo sapiens) [compound 176]” was ““++” (≥20% = ++)”.
